Here are results for 20 sequences from the DeepSol protein solubility set.

The data set is described as follows: soluble on expression in E. coli; label from the status in PepcDB or PDB records.
Regarding “MNVLKLTNGREISYLNEVEIRMGIDELNGEERYKKELENMETSDITVHKYEGGFKIWECTVDLCDYIEENQTLFAGKSVLELGCGAALPSILTAVHGAKEVFAQDFNASVIEFFTLPNFEENPHSAVVQGEAMGWEEVPNRLSGRKFDFILSSETIYNEDDYQALHDAVAATIKDDGVAWFAAKFFYFGVGGSVPAFCEFINQRGILQASEAKVIAASVPRRIVEIRKK”, the “soluble on expression in E. coli” value is listed as “not soluble”. “MNYLESEISALYASAHELCYLGMDGRPIYSDQFTRLNRDVFSQANALYDKRGNSHEEEARLCLSLLMGYNATLYNNGDKEERIQHILDRCWDVLEHLPASLLKVQLLVYCYGEVFDEELAREAQAIIDTWQDRKLSEEEREVVERLKDVQENPYPWSEVE”: the “soluble on expression in E. coli” value is given as “not soluble”. For “MNYMELYDVDEFWKFQMKVGLVKKAEKIKRTKKLIKLIVDFGNEERTIVTGIADQIPPEELEGKKFIFVVNLKPKKFSGVESQGMLILAETEDGKVYLIPVPEEVPVGARVW”, the “soluble on expression in E. coli” value is recorded as “soluble”.

As for “MNYRDLTLRERQVLGIIIQSYVVSAMPVGSRTIARNYNLGLSDATIRNVMADLEADGFISQPHTSAGRVPTDKGYRYYVDLIMNVSRIDEEEKRMIDDRFSNRNSELKGTSAEVLGTAARVLGSISRQLAVVLPPRLSNAVFERLDIVQLASSRIMVVIAIQSLFVKTIVMELNAEISRQKIDAVVDVLNERLPGLTLEEIRSTIAQRLSDFKGSEELMNSIVSSADTLFDESSILEQLYVSGTENIVDQPEFKQPEKVRDIITMIEDKFGMARLVDNAVPSALRQVSECEVAISIGTENRTGKAADLTIVSSPYFAGKMIGRVGVMGPKRMNYEHAVRVVNYMAGCLSEALSGNN”, the “soluble on expression in E. coli” value is given as “not soluble”.

Consider “MNYTETVAYIHSFPRLAKTGDHRRILTLLHALGNPQQQGRYIHVTGTNGKSTAANAIAHVLEASGLTVGLYTSPFIMRFNERIMIDHEPIPDAALVNAVAFVRAALERLQQQQADFNVTEFEFITALGYWYFRQRQVDVAVIEVGIGGDTDSTNVITPVVSVLTSVALDHQKLLGHTITAIAKHKAGIIKRGIPVVTGNLVPDAAAVVAAKVATTGSQWLRFDRDFSVPKAKLHGWGQRFTYEDQDGRISDLEVPLVGDYQQRNMAIAIQTAKVYAKQTEWPLTPQNIRQGLAASHWPARLEKISDTPLIVIDGAHNPDGINGLITALKQLFSQPITVIAGILADKDYAAMADRLTAAFSTVYLVPVPGTPRALPEAGYEALHEGRLKDSWQEALAASLNDVPDQPIVITGSLYLASAVRQTLLGGKS”, for which the “soluble on expression in E. coli” value was “soluble”.

As to “MPAFDKPKVELHVHLDGSIKPETILYYGRRRGIALPANTAEGLLNVIGMDKPLTLPDFLAKFDYYMPAIAGCREAIKRIAYEFVEMKAKEGVVYVEVRYSPHLLANSKVEPIPWNQAEGDLTPDEVVALVGQGLQEGERDFGVKARSILCCMRHQPNWSPKVVELCKKYQQQTVVAIDLAGDETIPGSSLLPGHVQAYQEAVKSGIHRTVHAGEVGSAEVVKEAVDILKTERLGHGYHTLEDQALYNRLRQENMHFEICPWSSYLTGAWKPDTEHAVIRLKNDQANYSLNTDDPLIFKSTLDTDYQMTKRDMGFTEEEFKRLNINAAKSSFLPEDEKRELLDLLYKAYGMPPSASAGQNLAENLYFQ”, the “soluble on expression in E. coli” value is recorded as “soluble”. Take “MPAHSLFSLSVSAALLLSAVPLPAQSAGWKPAEQIKTYAISGNTGGGLYQSIGERGPTAGVQAIAHTTFKLTWRRDYRPQPDGACVLVTARPNLTIIYTWPKAPSNLPPAVAASWKTFISGVETHERVHGEHILDMVKKIEAFSTGLRAENDPKCQKVRVVLQQRLGELSNEQRQRGRDFDRDELSPGGRVHQLILTLANGP”: the “soluble on expression in E. coli” value is given as “soluble”. Turning to “MPAINAKRVYRIMRQNALLLERKPAVPPSKRAHTGRVAVKESNQRWCSDGFEFCCDNGERLRVTFALDCCDREALHWAVTTGGFNSETVQDVMLGAVERRFGNDLPSSPVEWLTDNGSCYRANETRQFARMLGLEPKNTAVRSPESNGIAESFVKTIKRDYISIMPKPDGLTAAKNLAEAFEHYNEWHPHSALGYRSPREYLRQRACNGLSDNRCLEILEHHHHHH”, the “soluble on expression in E. coli” value is “soluble”.

As to “MPAKIPITDNHMHIDPRARGLEAVKEFKNSGGTHIILVTKPSWSLGIAVKKPEDYLAVFDETVEIASKIREIGVGAFPVLGVHPAEISKITEYMDLSEAVETMKKGLELAAGYVERGLAVGIKSGRPHYPVPSDVWEASNEIMEHAFSLGKEQDCAVQLHTESVQEPELKDIAERARKTGIKMYRVVKHYSPPLVKTCEELGIFPGVISVKGAIEKAIEEGTRFMMETDYIDDPDRPGAVLGPKTIPKRTIKLMETYGEEPFWTIHKENPEKVYDIEIEL”, the “soluble on expression in E. coli” value is listed as “not soluble”. For the sequence “MPCTDKGMIDLARKTVKLTTLRQGEEATIAGISKACRGANRRRLLDLGFVRGSRIAIDLTSPLGNPTAYVVRGTAIALRRDQARYILIYR”, the “soluble on expression in E. coli” value is reported as “not soluble”. Consider “MPDAVVVGAGPNGLVAANLLADAGWSVTVLEEQPEPGGAVRHDGEVAPGFVNDLFSSFYPLAAASPVLGGLRLEEHGLRWAHAPHVLAHPLTDGTCAVLDRDVATTAASLDAFALGDGAAWERLHAVWDRYRADILDALFTPFPPVRATARLALRLRGAGGLRLARTLVLPVRRMGEEEFRGEGGRLLLAGNALHADLAPEAAGSGGFGWLMSMLGQTYGFPVPVGGSGALTEALVHRLRARGGTLHCGRRVERVLVRDRRAVGVRTADGETVTARRAVLANVSVPALYGRLVAPADLPDQVLTDLRRFQWDFATFKVDWALDGPVPWQCEAAARAGTVHLSDGLDELTRFAAQIAMRQVPDRPFSLFGQMTTTDPTRSPRGTESAWAYTHVPHDIRADAGEEGITGTWDTGERELMADRVERQVERFAPGFRALIRARRVLAPPTLQALDANLEGGAINGGTTAMHQQLVFRPVPGTGRPETPVAGLFLASAGAHPGGGVHGAPGANAARAALRQHRFAGLARIQRALTRRDRAGDRHLEHHHHHH”, for which the “soluble on expression in E. coli” value is reported as “not soluble”. As for “MPDLMHSELTMSGPEQSLLAGALLGAGLPADAHRHLELAGRDYQSEALAEQHLREAHLLAPDHAAVLIGLYRFYFYKGRLGEALEVAQACLCKAARDNGLASDWRKVRRGDAEFSSYSAVLPRFYLFALKAYAYLQMRLGQLDEGHAAVEKLLELDPTDKVGAAVLLDVWRRIGLEHHHHHH”, the “soluble on expression in E. coli” value is recorded as “not soluble”. Turning to “MPDSPVDVKTQSRLTPPTMPPPPTTQGAPRTSSFTPTTLTNGTSHSPTALNGAPSPPNGFSNGPSSSSSSSLANQQLPPACGARQLSKLKRFLTTLQQFGNDISPEIGERVRTLVLGLVNSTLTIEEFHSKLQEATNFPLRPFVIPFLKANLPLLQRELLHCARLAKQNPAQYLAQHEQLLLDASTTSPVDSSELLLDVNENGKRRTPDRTKENGFDREPLHSEHPSKRPCTISPGQRYSPNNGLSYQPNGLPHPTPPPPQHYRLDDMAIAHHYRDSYRHPSHRDLRDRNRPMGLHGTRQEEMIDHRLTDREWAEEWKHLDHLLNCIMDMVEKTRRSLTVLRRCQEADREELNYWIRRYSDAEDLKKGGGSSSSHSRQQSPVNPDPVALDAHREFLHRPASGYVPEEIWKKAEEAVNEVKRQAMTELQKAVSEAERKAHDMITTERAKMERTVAEAKRQAAEDALAVINQQEDSSESCWNCGRKASETCSGCNTARYCGSFCQHKDWEKHHHICGQTLQAQQQGDTPAVSSSVTPNSGAGSPMDTPPAATPRSTTPGTPSTIETTPR”, the “soluble on expression in E. coli” value is reported as “soluble”. For “MPEFDFSPITEGIYNVIETEEKVLTSLPEETITQKRNRQNRTIKQILGHLIDSTSNNHQRMIRLQYSKDLLFFPDYRQDNDLWIALQDYQHTDWNNLIQLWKFFNLHIIQVIKSVDQTKLDSYWCDFEGTKVTLKEMIEGYLDHLNLHIQEIHELI”, the “soluble on expression in E. coli” value is “not soluble”. For the sequence “MPEGFDAYCICTGTPTARDLSIPGRELKGIHFALEMLAQQNRILEGQTFPKDKLVNAKGKKVLVIGGGDTGSDCIGTSVRQGATSVTQIEIMPKPPVGHNPSTPWPQWPVVFKTTSSHEEGCTRRWCLTSNQFLGKNGKVTGVEVEEVEWTPATDGGRPTMNLTGKKEVIEADMVLLAMGFLKPEQPKFAENVFLAGDAATGASLVVRAMAGGRKAAADIDHYLEHHHHHH”, the “soluble on expression in E. coli” value is reported as “not soluble”. Turning to “MPEGPEVALTADILEKYFKGKTLEYIDFISGRYSKSEPEGYDDFIANLPLKVSNVDTKGKFLWFELFDPNDKSNKWYIWNTFGLTGMWSLFEAKYTRAVLSFDNELMAYFSDMRNFGTFKFSNSEKELKRKLNELGPDFLKNDDIDISKIKKYKQPIVALLMDQKKIGSGLGNYLVAEILYRAKIDPHKLGSNLTDQEIENLWYWIKYETKLAYDSNHIGYMVNLENESSKIGRKNYHPNIHPTEKEFDFLVYRKKKDPNGNKVIADKIIGSGKNKRTTYWAPAIQKLEHHHHHH”, the “soluble on expression in E. coli” value was “soluble”. Regarding “MPENVTVIGAGLAGSEATWQLAKRGIHVDLYEMRPKKETPAHETGEFAELVCTNSMRSNQLSNAVGLLKEEMRHLDSLIMKAADMTQVPAGGALAVDRDSFSKYVTDTLKGMDNVTVHEEEIVKIPEDGITIIATGPLTSDALAKQIQAFSGTDSLHFFDAAAPIIAADSIDMDIVYKKSRYDRGEAAYLNCPMSKEQYEKFANELIKAETAQLHGFENSDVFEGCMPIEVMAARGAKTMLFGPLKPVGLEDPHTGETPYAVVQLRQDNAAASMYNIVGFQTHLKFGEQKRVFSMIPGLENARFVRYGKMHRNTYMASPNVLTASYEAKNRPGLFFAGQMTGVEGYVESAGSGLVAGINAAREALGKETVAFPKNTALGSMANYVTTTSAKHFQPMNASFALLPALEGKKIRKKRERHEKISERGLASLDAFKTEVLDLEHHHHHH”, the “soluble on expression in E. coli” value is given as “soluble”.

As for “MPEVVFYPQNKSINVEEGTTILQAARSAGVIIESPCNGTGTCGKCKVRLDEKSLPNVLAKSRHYLSKEEEEQGYVLACETQITGDIKVELGENKQNGTLKILSRGHSFNIDLKPFIRKEYFVHEDVTKVFAGKEQLGIEAGDTTKENYGAVVDIGTTTLVASIVNLNNGDEIGTSSALNPQAVHAQDVLSRIKFSSDADGLKVMHSELTDKINSMIGKIALRAGISKEHIYEIVFSGNTCMLHLASNTCPESLGKYPYTPKISGAAYLDAAKYNIDISPFGIIYLPPIISAYVGADIVSGILASQLHEKDGVILFVDIGTNGEMVLASCGNLSATSTAAGPAFEGMNITCGMRAGEAAIEFFEIEEQGSINIKVIGETEAAGICGSGLLDMVGEFAAHGVIKKNGQFIDPESENVLHPKLAERLVRQDGKWIFKVTDKVFLSQKDIRQVQLAKGAVRAGIEFLLENKGVRASDVDKVLIAGSFGYHLREKSLINIGLLPKEFEGKVEFVGNTSLSGAKAFLLNQTYREKMKETVKSVEVLELANYKDFDRVFVRCLSFLEHHHHHH”, the “soluble on expression in E. coli” value is listed as “not soluble”. With “MPFRTIARLNPAKPKAGEEFRLQVVAQHPNEPGTRRDAEGKLIPAKYINLVEVYFEGEKVAEARPGPSTSANPLYAFKFKAEKAGTFTIKLKDTDGDTGEASVKLELV”, the “soluble on expression in E. coli” value is “soluble”. Turning to “MPFSFFSRKKPSRRFNDFYEDWSKTLTENCLPLLRQSLSSAASASVLSSNVDLVLRHLVLYYETLDLAADHNTIPYLLFPSWRNSLETPFLFLGDIHPYLLTNLLRSFIDRENQDSDDEDEETSLDLVNQPLKMTMAWKDPSDELVKRIDQIECTMRLMVPGLMDRMRKTQRSFVARVSESWVSSYQVGKKKKLTATVATASTSVDEAAKIEMEELVSIFVDANRLRKSVIMDIVGATSEHQAALFLEGLCQFLAGFKDQILLQDFEILSLPN”, the “soluble on expression in E. coli” value is reported as “soluble”.
